Measurements: US20240043559A1 (SHANGHAI HENLIUS BIOTECH, published 2024)
One block for each molecule: values may come before it.

Legend:
[1] = target: human GPC3 expressed endogenously on hepatoma cells (HepG2, Hep3B) (human) (UniProt P51654); test: flow cytometry on HepG2 cells (endogenous GPC3)
[2] = target: recombinant human GPC3 protein (human) (UniProt P51654); test: ELISA on plate-coated human GPC3
[3] = target: human GPC3 expressed endogenously on hepatoma cells (HepG2, Hep3B) (human) (UniProt P51654); test: flow cytometry on Hep3B cells (endogenous GPC3)
[4] = target: T1, human GPC3 expressed endogenously on hepatoma cells (HepG2, Hep3B) (human, UniProt P51654 25-554); test: flow cytometry on HepG2 cells (endogenous GPC3)
T1 construct: also called GPC3 on HepG2; GPC3 on Hep3B
T1 sequence (P51654 other isoform, or with tags, fused parts or gaps limits assumed, form in doubt): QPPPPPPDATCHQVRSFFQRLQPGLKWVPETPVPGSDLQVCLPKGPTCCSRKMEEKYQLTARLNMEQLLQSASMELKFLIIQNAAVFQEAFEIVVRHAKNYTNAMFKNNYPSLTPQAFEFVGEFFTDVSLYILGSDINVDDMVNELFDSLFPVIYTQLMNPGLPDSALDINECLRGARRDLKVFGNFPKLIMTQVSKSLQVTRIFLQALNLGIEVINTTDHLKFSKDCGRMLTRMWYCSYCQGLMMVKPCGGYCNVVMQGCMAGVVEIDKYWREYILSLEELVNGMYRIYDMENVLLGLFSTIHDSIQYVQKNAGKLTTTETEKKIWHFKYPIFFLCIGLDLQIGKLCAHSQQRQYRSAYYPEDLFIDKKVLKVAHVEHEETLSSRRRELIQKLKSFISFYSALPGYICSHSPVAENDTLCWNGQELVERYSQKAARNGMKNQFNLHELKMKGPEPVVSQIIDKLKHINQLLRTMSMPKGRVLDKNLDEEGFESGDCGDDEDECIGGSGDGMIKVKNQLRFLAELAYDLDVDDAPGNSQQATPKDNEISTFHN

Chain of human GPC3 expressed endogenously on hepatoma cells (HepG2, Hep3B) (human) (P51654 other isoform, or with tags, fused parts or gaps limits assumed, form in doubt): as above
Chain of recombinant human GPC3 protein (human) (P51654 other isoform, or with tags, fused parts or gaps limits assumed, form in doubt): as above

- EC50 (read off the curve) [1]: 2 nM
- EC50 (read off the curve) [2]: 0.02 µg/mL
- EC50 (read off the curve) [3]: 2 nM
Molecule: HN3 VHH-Fc (Fc fusion)

- EC50 (read off the curve) [4]: ~0.3 nM
B1: 1B01 llama-human chimeric bivalent VHH-Fc (Fc fusion)
chain: QVQLQESGGGLVQAGGSLRLSCAAVGLPFSNYAMGWFRQAPGEEREFVSAVSANGGNEYYADSVKDRFTISRDNAKNTVYLRMLSLKLEDTAIYYCATVRRRGGTFTVGSYRGQGTQVTVSS
notes: also called Clone 1B01; 1B01 llama VHH; not shown: human IgG1 Fc fused to the C-terminal of the VHH
